The text below walks through data of patent US20090180952A1.

In test [1] the target is uPAR on the surface of HeLa cells, Q03405. As to the kind of experiment: 125I-ATN-658 saturation binding to HeLa cells.
Test [2] concerns the target recombinant soluble urokinase plasminogen activator receptor (suPAR, aa 1-279) (UniProt Q03405). Briefly: direct binding assay (format and antigen form not stated).

What is called Kd is the free concentration of one partner at which half of the binding sites on the other are occupied at equilibrium, for simple one-to-one binding.

Chain of uPAR on the surface of HeLa cells, Q03405 (Q03405 23-305 limits assumed): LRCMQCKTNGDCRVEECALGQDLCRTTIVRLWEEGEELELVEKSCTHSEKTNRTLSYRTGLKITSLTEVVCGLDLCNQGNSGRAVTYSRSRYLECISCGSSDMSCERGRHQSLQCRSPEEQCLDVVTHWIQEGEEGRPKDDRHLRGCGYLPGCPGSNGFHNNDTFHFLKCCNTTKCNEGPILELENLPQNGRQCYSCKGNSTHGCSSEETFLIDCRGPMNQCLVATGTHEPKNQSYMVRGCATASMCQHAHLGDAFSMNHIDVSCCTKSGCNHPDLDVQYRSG

B1: mAb ATN-658 (antibody, IgG1, V domains shown)
VL: not shown
VH: VQLQESGPELVKTGASVKISCKASGYSFTSYYMHWVKQSHGKSLEWIGEINPYNGGASYNQKIKGRATFTVDTSSRTAYMQFNSLTSEDSAVYYCARSIYGHSVLDYWGQGTTVTVS
modifications: not checked
In test [1], B1 displayed a Kd of 1.5 nM.

B2: mAb ATN-615 (antibody, IgG1, V domains shown)
VH: VKLQQSGPEVVKPGASVKISCKASGYSFTNFYIHWVKQRPGQGLEWIGWIFHGSDNTEYNEKFKDKATLTADTSSSTAYMQLSSLTSEDSAVYFCARWGPHWYFDVWGQGTTVTVSS
VL: DIVLTQSPDITAASLGQKVTITCSASSSVSYMHWYQQKSGTSPKPWIFEISKLASGVPARFSGSGSGTSYSLTISSMEAEDAAIYYCQQWNYPFTFGGGTKLEIKR
With B2, the Kd in test [2] was 2 nM.
